Sequences and labels used below:
B1: TAMRA-labeled α-synuclein peptide (peptide)
peptide: GYQDYEPEA
modifications: also: TAMRA fluorophore, position not given here

Read-outs that look alike come from different tables or passages of the source. Where no end group is shown, it is not given here.

Targets include I55V/N2.12; N2.15; N2.10; N2.13; N2.11; N2.14; N2.3; N2.7; N2.8; N2.4; N2.2; N2.6; N2.1; N2.9.
Assay in all cases: FP
Test [1] has as its target B1.
For test [2], the target named is B1.

Usually Kd stands for the concentration at which binding is half-saturated. Read a high Kd as lower affinity.

As for B1, the Kd stood at 5.7 nM in the test with I55V/N2.12; 23.1 nM in the test with N2.15; 31.6 nM with N2.10; 20.3 nM with N2.13; 21.6 nM with N2.11; 16.2 nM in the test with N2.14. Further, the Kd in the test with N2.3 is 11.4 nM; in the test with N2.7, 15.1 nM; with N2.8 it was 28.5 nM; with N2.4, 14.3 nM; with N2.2 it was 23 nM; with N2.6 it was 25.1 nM. The values for the equilibrium dissociation constant (Kd) with N2.1 and with N2.9 were 14.3 nM and 28 nM, respectively.

B2: N2.5 VHH (VHH)
VHH: QGQLVESGGGSVQAGGSLRLSCAASGIDSSSYCMGWFRQRPGKEREGVARINGLSGVKTAYADSVKDRFTISRDNAENTVYLQMNSLKPEDTAIYYCAAKSSPGYCGGTWFSFGYWGQGTQVTVSS
In test [1], B2 showed a Kd of 55.3 nM.

B3: N2.17 reversion mutant S100f (VHH)
VHH: QGQLVESGGGSVQAGGSLRLSCAASGIDSSSYCMGWFRQRPGKEREGVARINGWGGVKTAYADSVKDRFTISRDNAENTVYLQMNSLKPEDTAIYYCAAKSSPGYCGGTWSNFGYWGQGTQVTVSS
On to B3, for which binding in [2] was put at a Kd of 11 nM. This counts as double-digit nanomolar.

B4: N2.12 reversion mutant A49 (VHH)
VHH: QGQLVESGGGSVQAGGSLRLSCAASGIDSSSYCMGWFRQRPGKEREGVARINGWRGIKTAYADSVKDRFTISRDNAENTVYLQMNSLKPEDTAIYYCAAKSSPGYCGGTWSNFGYWGQGTQVTVSS
B4 gave a Kd in test [2] of 8.2 nM. This Kd and that of the molecule before are within 1.5-fold of each other.

B5: N2.17 reversion mutant F96 (VHH)
VHH: QGQLVESGGGSVQAGGSLRLSCAASGIDSSSYCMGWFRQRPGKEREGVARINGWGGVKTAYADSVKDRFTISRDNAENTVYLQMNSLKPEDTAIYYCAAKFSPGYCGGTWFNFGYWGQGTQVTVSS
As for B5, binding in [2] was put at a Kd of 72.2 nM.

B6: N2.12 reversion mutant L52b (VHH)
VHH: QGQLVESGGGSVQAGGSLRLSCAASGIDSSSYCMGWFRQRPGKEREGVGRINGLRGIKTAYADSVKDRFTISRDNAENTVYLQMNSLKPEDTAIYYCAAKSSPGYCGGTWSNFGYWGQGTQVTVSS
B6 showed a Kd in test [2] of 16.9 nM.

B7: N2.12 reversion mutant S100d (VHH)
VHH: QGQLVESGGGSVQAGGSLRLSCAASGIDSSSYCMGWFRQRPGKEREGVGRINGWRGIKTAYADSVKDRFTISRDNAENTVYLQMNSLKPEDTAIYYCAAKSSPGYCGGSWSNFGYWGQGTQVTVSS
Take B7: the Kd in test [2] is 11.9 nM.

B8: N2.16 VHH (VHH)
VHH: QGQLVESGGGSVQAGGSLRLSCAASGIDSSSYCMGWFRQRPGKEREGVGRINGWSGVKTAYADSVKDRFTISRDNAENTVYLQMNSLKPEDTAIYYCAAKSSPGYCGGTWYNFGYWGQGTQVTVSS
Consider B8, for which the affinity in [1], expressed as Kd, was 11.2 nM.

B9: N2.17 reversion mutant S100d (VHH)
VHH: QGQLVESGGGSVQAGGSLRLSCAASGIDSSSYCMGWFRQRPGKEREGVARINGWGGVKTAYADSVKDRFTISRDNAENTVYLQMNSLKPEDTAIYYCAAKSSPGYCGGSWFNFGYWGQGTQVTVSS
In test [2], B9 had a dissociation constant Kd of 27.5 nM.

B10: N2.12 reversion mutant F96 (VHH)
VHH: QGQLVESGGGSVQAGGSLRLSCAASGIDSSSYCMGWFRQRPGKEREGVGRINGWRGIKTAYADSVKDRFTISRDNAENTVYLQMNSLKPEDTAIYYCAAKFSPGYCGGTWSNFGYWGQGTQVTVSS
In [2], B10 showed a dissociation constant Kd of 18.6 nM.

B11: N2.12 reversion mutant G53 (VHH)
VHH: QGQLVESGGGSVQAGGSLRLSCAASGIDSSSYCMGWFRQRPGKEREGVGRINGWGGIKTAYADSVKDRFTISRDNAENTVYLQMNSLKPEDTAIYYCAAKSSPGYCGGTWSNFGYWGQGTQVTVSS
Take B11: in test [2], the Kd came to 14.1 nM.

B12: N2.17 reversion mutant L52b (VHH)
VHH: QGQLVESGGGSVQAGGSLRLSCAASGIDSSSYCMGWFRQRPGKEREGVARINGLGGVKTAYADSVKDRFTISRDNAENTVYLQMNSLKPEDTAIYYCAAKSSPGYCGGTWFNFGYWGQGTQVTVSS
Molecule B12 came in with a Kd in [2] of 30 nM.

(Values after publication PMC5591402 (2017).)
